# Biological target: T1, Tma endonuclease V H116A H116A (Thermotoga maritima) (UniProt Q9X2H9)
# T1 sequence: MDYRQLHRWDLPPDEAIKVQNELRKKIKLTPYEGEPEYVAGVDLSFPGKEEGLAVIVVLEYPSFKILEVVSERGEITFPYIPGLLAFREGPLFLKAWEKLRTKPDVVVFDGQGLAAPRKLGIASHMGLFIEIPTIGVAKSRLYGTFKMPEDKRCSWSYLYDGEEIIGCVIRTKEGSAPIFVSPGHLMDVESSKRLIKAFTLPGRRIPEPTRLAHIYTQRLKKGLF
# Assay: EMSA
# Conditions: deoxyinosine; MgCl2; bound about half as tightly as wt
substance,measurement,value
nicked I/A product,binding signal,0.5 fold of wt

# Reference: patent publication US20030148283
